Source: article doi:10.1101/2023.01.19.524411 (bioRxiv, 2023)

Target: the molecule itself
Assay: native gel or EMSA

B1: flag-tagged STING (stimulator of interferon genes) (natural protein, UniProt Q3TBT3 1-378, looked up)
chain: MPYSNLHPAIPRPRGHRSKYVALIFLVASLMILWVAKDPPNHTLKYLALHLASHELGLLLKNLCCLAEELCHVQSRYQGSYWKAVRACLGCPIHCMAMILLSSYFYFLQNTADIYLSWMFGLLVLYKSLSMLLGLQSLTPAEVSAVCEEKKLNVAHGLAWSYYIGYLRLILPGLQARIRMFNQLHNNMLSGAGSRRLYILFPLDCGVPDNLSVVDPNIRFRDMLPQQNIDRAGIKNRVYSNSVYEILENGQPAGVCILEYATPLQTLFAMSQDAKAGFSREDRLEQAKLFCRTLEEILEDVPESRNNCRLIVYQEPTDGNSFSLSQEVLRHIRQEEKEEVTMNAPMTSVAPPPSVLSQEPRLLISGMDQPLPLRTDLI
  stoichiometry N: 2
